From the supplement of paper PMC7125110 come the findings set out here.

± gives the standard error. For part of these data: Fewer inactive variants are shown than the library holds.

B1: glmS ribozyme (parent)
chain: AUAAAAGCGCCAGAACUACAGAAAUGUAGUUGACGAGGAGGAGGUUUAUCGAAUUUUCGGCGGAUGCCUCCAAA

What all share (conditions): with glucosamine-6-phosphate
The variants in data set [1] derive from B1. Kind of data set: kcat; higher = faster cleavage; RNA array. In a few lines:
(§1)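 The measurements used barcoded ribozyme variants on sequenced MiSeq chips, transcribed in situ by E. coli RNA polymerase and tracked at 37 °C with a hybridised Cy3 probe. Glucosamine-6-phosphate, 40 μM to 10 mM in HEPES/KCl/Mg(OAc)2 buffer, was flowed in while tiles were imaged over ~14 h. Baseline-normalised signals, also normalised to non-cleaving reference variants, gave per-tile medians that were fit to one- or two-exponential decays for kobs. kcat and KM resulted from weighted Michaelis–Menten fits across concentrations.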

The variants in data set [2] derive from B1. Briefly: self-cleavage kobs at 40 uM GlcN6P; higher = faster cleavage; RNA array. The method in brief:
as §1

Variants of B1 are the subject of data set [3]. Kind of data set: self-cleavage kobs at 160 uM GlcN6P; higher = faster cleavage; RNA array. The method in brief:
as §1

The variants in data set [4] derive from B1. Briefly: self-cleavage kobs at 640 uM GlcN6P; higher = faster cleavage; RNA array. The method in brief:
as §1

Data set [5] covers variants of B1. Briefly: self-cleavage kobs at 2500 uM GlcN6P; higher = faster cleavage; RNA array. In a few lines: as §1
The variants in data set [6] derive from B1. Kind of data set: self-cleavage kobs at 10000 uM GlcN6P; higher = faster cleavage; RNA array. The method in brief:
as §1

Data set [7] covers variants of B1. Briefly: KM; higher = weaker cofactor use; RNA array. In a few lines: as §1

As for A12C U54G G66U, the kcat with glucosamine-6-phosphate [1] stood at 0.00175 ± 0.00085 s⁻¹. Also, in the data set with glucosamine-6-phosphate [2], the “self-cleavage kobs at 40 uM GlcN6P” value was 5.6e-05 ± 1.7e-05 s⁻¹. Further, the “self-cleavage kobs at 160 uM GlcN6P” value in the data set with glucosamine-6-phosphate [3] was determined as 8.77e-05 ± 1.3e-05 s⁻¹. For the same variant, the “self-cleavage kobs at 640 uM GlcN6P” value with glucosamine-6-phosphate [4] worked out at 0.000245 ± 5.3e-05 s⁻¹. In addition, the “self-cleavage kobs at 2500 uM GlcN6P” value with glucosamine-6-phosphate [5] turned out to be 0.000495 ± 0.00014 s⁻¹. The “self-cleavage kobs at 10000 uM GlcN6P” value in the data set with glucosamine-6-phosphate [6] came out at 0.00164 ± 0.00028 s⁻¹.
Regarding A12U U46A, in the data set with glucosamine-6-phosphate [1], the kcat is 0.00538 ± 0.00031 s⁻¹. Moreover, the Michaelis constant (KM) with glucosamine-6-phosphate [7] came to 1720 ± 140 µM. In addition, the “self-cleavage kobs at 40 uM GlcN6P” value with glucosamine-6-phosphate [2] was 0.000119 ± 1.5e-05 s⁻¹. Further, the “self-cleavage kobs at 640 uM GlcN6P” value with glucosamine-6-phosphate [4] worked out at 0.00161 ± 0.00033 s⁻¹. The “self-cleavage kobs at 2500 uM GlcN6P” value with glucosamine-6-phosphate [5] was found to be 0.00326 ± 0.0006 s⁻¹. The “self-cleavage kobs at 10000 uM GlcN6P” value with glucosamine-6-phosphate [6] is 0.0045 ± 0.00062 s⁻¹.
With U65C C68U, the kcat in the data set with glucosamine-6-phosphate [1] stood at 2.26e-05 ± 1.2e-06 s⁻¹. For the same variant, the Michaelis constant (KM) with glucosamine-6-phosphate [7] amounted to 558 ± 230 µM.
Consider G29C U46C, for which, in the data set with glucosamine-6-phosphate [1], the turnover number (kcat) was 9.55e-05 ± 4.5e-06 s⁻¹. Further, in the data set with glucosamine-6-phosphate [7], the KM came out at 535 ± 120 µM. Moreover, the “self-cleavage kobs at 640 uM GlcN6P” value in the data set with glucosamine-6-phosphate [4] was found to be 5.09e-05 ± 1.5e-05 s⁻¹. Further, the “self-cleavage kobs at 2500 uM GlcN6P” value in the data set with glucosamine-6-phosphate [5] was 8.67e-05 ± 2.2e-05 s⁻¹. Also, the “self-cleavage kobs at 10000 uM GlcN6P” value with glucosamine-6-phosphate [6] stood at 8.84e-05 ± 1.4e-05 s⁻¹.
C10A C61A: in the data set with glucosamine-6-phosphate [1], the kcat was 2.22e-05 ± 9.1e-06 s⁻¹. The “self-cleavage kobs at 40 uM GlcN6P” value with glucosamine-6-phosphate [2] was less than 1e-05 s⁻¹.
For U56A C71G, the turnover number (kcat) in the data set with glucosamine-6-phosphate [1] was 0.00102 ± 0.00013 s⁻¹. For the same variant, the KM with glucosamine-6-phosphate [7] was determined as 1010 ± 210 µM. Further, the “self-cleavage kobs at 40 uM GlcN6P” value with glucosamine-6-phosphate [2] came out at 5.19e-05 ± 8e-06 s⁻¹. The “self-cleavage kobs at 160 uM GlcN6P” value in the data set with glucosamine-6-phosphate [3] was determined as 0.000119 ± 1.8e-05 s⁻¹. Further, in the data set with glucosamine-6-phosphate [4], the “self-cleavage kobs at 640 uM GlcN6P” value is 0.000396 ± 4.5e-05 s⁻¹. In the data set with glucosamine-6-phosphate [5], the “self-cleavage kobs at 2500 uM GlcN6P” value was 0.000715 ± 9.6e-05 s⁻¹. For the same variant, in the data set with glucosamine-6-phosphate [6], the “self-cleavage kobs at 10000 uM GlcN6P” value was 0.000952 ± 0.0001 s⁻¹.
Take A48G C58U: in the data set with glucosamine-6-phosphate [1], the kcat came to 1.71e-05 ± 2.1e-06 s⁻¹.
In the case of U45G C70A, in the data set with glucosamine-6-phosphate [1], the catalytic constant (kcat) turned out to be 0.000251 ± 5.4e-05 s⁻¹. Further, the “self-cleavage kobs at 640 uM GlcN6P” value with glucosamine-6-phosphate [4] worked out at 0.000111 ± 2.5e-05 s⁻¹. The “self-cleavage kobs at 2500 uM GlcN6P” value with glucosamine-6-phosphate [5] is 0.000364 ± 0.00011 s⁻¹. Further, the “self-cleavage kobs at 10000 uM GlcN6P” value with glucosamine-6-phosphate [6] is 0.000215 ± 4.3e-05 s⁻¹.
With A39U G41U, the kcat in the data set with glucosamine-6-phosphate [1] is 0.00058 ± 0.00011 s⁻¹. Moreover, in the data set with glucosamine-6-phosphate [7], the KM was 1710 ± 530 µM. Also, the “self-cleavage kobs at 160 uM GlcN6P” value with glucosamine-6-phosphate [3] came out at 6.52e-05 ± 1.2e-05 s⁻¹. Besides, the “self-cleavage kobs at 640 uM GlcN6P” value with glucosamine-6-phosphate [4] stood at 0.000138 ± 1.7e-05 s⁻¹. Moreover, in the data set with glucosamine-6-phosphate [5], the “self-cleavage kobs at 2500 uM GlcN6P” value amounted to 0.000402 ± 6.4e-05 s⁻¹. Besides, in the data set with glucosamine-6-phosphate [6], the “self-cleavage kobs at 10000 uM GlcN6P” value worked out at 0.000489 ± 6.8e-05 s⁻¹.
For A52U U65G, in the data set with glucosamine-6-phosphate [1], the kcat was 9.59e-05 ± 1.1e-06 s⁻¹. Also, the Michaelis-Menten constant (KM) in the data set with glucosamine-6-phosphate [7] was 9460 ± 180 µM. Also, the “self-cleavage kobs at 40 uM GlcN6P” value with glucosamine-6-phosphate [2] was less than 1e-05 s⁻¹. In the data set with glucosamine-6-phosphate [3], the “self-cleavage kobs at 160 uM GlcN6P” value is less than 1e-05 s⁻¹. Also, the “self-cleavage kobs at 10000 uM GlcN6P” value with glucosamine-6-phosphate [6] was determined as 4.93e-05 ± 1.8e-05 s⁻¹.
Take C11U U65A C71U: the kcat with glucosamine-6-phosphate [1] was determined as 0.000194 ± 1.4e-05 s⁻¹. Moreover, the KM in the data set with glucosamine-6-phosphate [7] turned out to be 3610 ± 470 µM. In the data set with glucosamine-6-phosphate [4], the “self-cleavage kobs at 640 uM GlcN6P” value was found to be 2.73e-05 ± 1.3e-05 s⁻¹. Moreover, the “self-cleavage kobs at 2500 uM GlcN6P” value with glucosamine-6-phosphate [5] turned out to be 8.15e-05 ± 1.6e-05 s⁻¹. Besides, the “self-cleavage kobs at 10000 uM GlcN6P” value with glucosamine-6-phosphate [6] came to 0.000139 ± 4.3e-05 s⁻¹.
As to A39G G40U U55C C71A, the turnover number (kcat) with glucosamine-6-phosphate [1] is 0.00728 ± 0.0021 s⁻¹. Further, the Michaelis constant (KM) with glucosamine-6-phosphate [7] came to 2200 ± 930 µM. In the data set with glucosamine-6-phosphate [2], the “self-cleavage kobs at 40 uM GlcN6P” value turned out to be 0.000207 ± 4.1e-05 s⁻¹. The “self-cleavage kobs at 160 uM GlcN6P” value with glucosamine-6-phosphate [3] was 0.000368 ± 8.6e-05 s⁻¹. Further, the “self-cleavage kobs at 640 uM GlcN6P” value with glucosamine-6-phosphate [4] was found to be 0.00178 ± 0.00043 s⁻¹. Besides, the “self-cleavage kobs at 2500 uM GlcN6P” value in the data set with glucosamine-6-phosphate [5] was determined as 0.00448 ± 0.00083 s⁻¹. Besides, the “self-cleavage kobs at 10000 uM GlcN6P” value with glucosamine-6-phosphate [6] was found to be 0.00562 ± 0.001 s⁻¹.
Take A42U C68U: in the data set with glucosamine-6-phosphate [1], the catalytic constant (kcat) was found to be 0.000347 ± 1.8e-05 s⁻¹. The Michaelis constant (KM) with glucosamine-6-phosphate [7] worked out at 1360 ± 230 µM. The “self-cleavage kobs at 640 uM GlcN6P” value in the data set with glucosamine-6-phosphate [4] worked out at 0.000108 ± 2.4e-05 s⁻¹. The “self-cleavage kobs at 2500 uM GlcN6P” value in the data set with glucosamine-6-phosphate [5] amounted to 0.000254 ± 5.6e-05 s⁻¹. Also, the “self-cleavage kobs at 10000 uM GlcN6P” value in the data set with glucosamine-6-phosphate [6] amounted to 0.000302 ± 3e-05 s⁻¹.
For A14C U55A, in the data set with glucosamine-6-phosphate [1], the kcat came out at 0.00676 ± 0.0017 s⁻¹. For the same variant, the KM with glucosamine-6-phosphate [7] turned out to be 2080 ± 720 µM. The “self-cleavage kobs at 40 uM GlcN6P” value in the data set with glucosamine-6-phosphate [2] came out at 0.000144 ± 1.6e-05 s⁻¹. Also, the “self-cleavage kobs at 160 uM GlcN6P” value with glucosamine-6-phosphate [3] was determined as 0.000546 ± 8.1e-05 s⁻¹. Further, the “self-cleavage kobs at 640 uM GlcN6P” value with glucosamine-6-phosphate [4] turned out to be 0.00145 ± 0.00015 s⁻¹. Also, the “self-cleavage kobs at 2500 uM GlcN6P” value with glucosamine-6-phosphate [5] amounted to 0.0031 ± 0.00043 s⁻¹. The “self-cleavage kobs at 10000 uM GlcN6P” value with glucosamine-6-phosphate [6] turned out to be 0.00734 ± 0.00098 s⁻¹.
Consider G13U U65A, for which, in the data set with glucosamine-6-phosphate [1], the kcat came to 0.000112 ± 6.4e-06 s⁻¹. For the same variant, the Michaelis constant (KM) with glucosamine-6-phosphate [7] turned out to be 1260 ± 270 µM. The “self-cleavage kobs at 2500 uM GlcN6P” value in the data set with glucosamine-6-phosphate [5] is 7.82e-05 ± 1.7e-05 s⁻¹. Besides, the “self-cleavage kobs at 10000 uM GlcN6P” value in the data set with glucosamine-6-phosphate [6] came out at 9.77e-05 ± 1.8e-05 s⁻¹.

What is called kcat is the number of substrate molecules converted per active site and unit of time at saturation. For orientation: KM means the concentration of substrate that gives half-maximal velocity.
